Reference: patent US20210292393A1 (published 2021)
Numbering of substitutions follows the chain as printed.

B1: antibody 434 (antibody, V domains shown)
VH: QVQLVQSGAEVKKPGASVQVSCKASGYTFSDYYIFWVRQAPGQGLEWMGCINPKSGGAIYAQRFQGRVTMTRDTSFNTAYMEMNRLGSDDTAVYYCVTRGPPDIAASGFAWHLDVWGQGTTVTVSS
VL: DIVMTQSPLSLPVTPGEPASISCRSSQSLLSSNGYNYLEWYLQKPGQSPQLLMYLGSNRASGVPDRFSGSGSGTDFTLKINRVEAEDVGVYYCMQALQTPLTFGGGTKVEIK
B2: antibody 409 (antibody, V domains shown)
VH: QVTLRESGPALVKPTQTLTLTCTFSGFSLSTSGMCVSWIRQPPGKALEWLALIDWDDDKYYSTSLKTRLTISKDTSKNQVVLTMTNMDPVDTATYYCARTTYYYVSGRRAEFDPWGQGTLVTVSS
VL: NFMLTQPHSVSESPGKTVTISCTGSSGSIASNYVQWYQQRPGSAPTTVIYEDNQRPSGVPDRFSGSIDSSSNSASLTISGLKTEDEADYYCQSYDSSNQGVFGGGTKLTVL
B3: antibody 421 (antibody, V domains shown)
VH: QVQLVESGGGVVQPGRSLRLSCAASGFTFSTYAMHWVRQAPGKGLEWVAVISYDGSNKYYADSVKGRFTISRDNSKNTLYLQMNSLRAEDTAVYYCARGYGSGSYYPLYLYWGQGTLVTVSS
VL: not shown
B4: antibody 545 (antibody, V domains shown)
VH: QVQLVQSGSELKKPGASVKVSCKASGYTFTSYAMNWVRQAPGQGLEWMGWINTNTGNPTYAQGFTGRFVFSLDTSVSTAYLQISVLKAEDTGVYYCARDHELPNSSSWFGHFEYWGQGTLVTVSS
VL: SYELTQPPSVSVSPGQTARITCSGDALPKQYAYWYQQKAGQAPVLVIYKDSERRSGIPERFSGSSSGTTVTLTISGVQAEDEADYYCQSADSSGTSVVFGGGTKLTVL
B5: antibody 537 (antibody, V domains shown)
VH: QVQLQQWGAGLLKPSETLSLTCAVYGGSFSGYYWSWIRQPPGKGLEWIGEINHSGSTNYNPSLKSRVTISVDTSKNQFSLKLSSVTAADTAVYYCARGLYYDMGGGFDYWGQGTLVTVSS
VL: not shown
B6: antibody 392 (antibody, V domains shown)
VH: QVQLQESGPGLVKPSGTLSLTCAVSGGSISSSNWWSWVRQPPGKGLEWIGEIYHSGSTNYNPSLKSRVTISVDKSKNQFSLKLSSVTAADTAVYYCARGWRATLYGMDVWGQGTTVTVSS
VL: QSALTQPASVSGSPGQSITISCTGTSSDVGSYNLVSWYQQHPGKAPKLMIYEVSKRPSGVSNRFSGSKSGNTASLTISGLQAEDEADYYCCSYAGSSTWVFGGGTKLTVL
B7: antibody 405 (antibody, V domains shown)
VH: not shown
VL: B6 VL with A8R, I18V, S31G, L34Y, E52D, S61P, N62D, S97Y, T98N, W99V
B8: antibody 536 (antibody, V domains shown)
VH: QVQLVESGGGVVQPGRSLRLSCAASGFTFSSYVMHWVRQAPGKGLEWVALISYDGSNKYYADSVKGRFTISRDNSKNTLYLQMNSLRAEDTAVYYCARGGHIRVGRYFDWLISYFDYWGQGTLVTVSS
VL: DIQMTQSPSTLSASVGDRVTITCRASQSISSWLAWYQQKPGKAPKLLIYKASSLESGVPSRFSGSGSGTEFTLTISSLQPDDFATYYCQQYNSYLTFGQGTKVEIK
B9: antibody 546 (antibody, V domains shown)
VH: QVQLVESGGGVVQPGRSLRLSCAASGFTFSSYGMHWVRQAPGKGLEWVAVIWYDGSNKYYADSVKGRFTISRDNSKNTLYLQMNSLRAEDTAVYYCARNCGGDCVAGDGFDYWGQGTLVTVSS
VL: DIQMTQSPSSLSASVGDRVTITCRASQSISSYLNWYQQKPGKAPNLLIYAASSLQSGVPSRFSGSGSGTDFTLTISSLQPEDFATYYCQQSYSALTWTFGQGTKVEIK
B10: antibody 543 (antibody, V domains shown)
VH: EVQLVESGGGLVQPGRSLRLSCAASGFTFHDYAMHWVRQAPGKGLEWVSGISWNSGSIGYADSVKGRFTISRDNAKNSLYLQMNSLRAEDTALYYCAKDTFGSSSWYRGDSYYYYGMDVWGQGTTVTVSS
VL: QSALTQPASVSGSPGQSITISCTGTSSDVGGYNYVSWYQQHPGKAPKLMIYEVSNRPSGVSNRFSGSKSGNTASLTISGLQAEDEADYYCSSYTSSSTQRYVVFGGGTKLTVL
B11: antibody 423 (antibody, V domains shown)
VH: EVQLVESGGGLIQPGGSLRISCAASGFTVRNNHMSWVRQAPGKGLEWVSVFYRGGTTYYADSVKGRFTISRDDSKNTVDLQMNSLRGEDTAVYYCARGLSVAASGYFDCWGQGTLVTVSS
VL: DIQMTQSPSSVSASVGDTVTITCRANQGISSWLAWYQQVPGKAPELLIYATSTLQSGVPSRFSGSGSGTDFTLTISSLQPEDFATYYCQQANSFPFTFGPGTKVDIK
B12: antibody 422 (antibody, V domains shown)
VH: QVQLVQSGSELKKPGASVKVSCKASGYTFTSYAMNWVRQAPGQGLEWMGWINTNTGNPTYAQGFTGRFVFSLDTSVSTTYLQISSLKAEDTAVYYCARVIGVVTYYYYGMDVWGQGTTVTVSS
VL: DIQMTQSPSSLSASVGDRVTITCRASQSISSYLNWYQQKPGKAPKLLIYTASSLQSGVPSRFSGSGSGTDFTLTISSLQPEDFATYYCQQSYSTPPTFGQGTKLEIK
B13: antibody 407 (antibody, V domains shown)
VH: QVQLVESGGGVVQPGRSLRLSCAASGFTFSSYGMHWVRQAPGKGLEWVAVISYDGSNKYYADSVKGRFTISRDNSKNTLYLQMNSLRAEDTAVYYCAKCGWDYDFWVGQGYGMDVWGQGTTVTVSS
VL: not shown
B14: antibody 533 (antibody, V domains shown)
VH: GVQLVESGGVVVQPGGSLRLSCAASGFSFDDYTMHWVRQAPGKGLEWVSLVSWDGGTTYYTDSVKGRFTISRDNSKNSLYLQMNSLRTEDTALYFCAKDSGRIVPAATFDYWGQGTLVTVSS
VL: DIQMTQSSSSLSASVGDRVTITCRASQDISNYLAWFQQKPGKAPKSLIYAASSLQSGVPSKFSGSGSGTDFTLTISSLQPEDFATYYCQQYYTYPLTFGGGTKVEIK
B15: antibody 385 (antibody, V domains shown)
VH: QVQLVESGGGVVQPGRSLRLSCAASGFTFSSYAIHWVRQAPGKGLEWVAVISYDGSNKYYADSVKGRFTISRDNSKNTLYLQMNSLRAEDTAVYYCARPRSGSYWGAFDIWGQGTMVTVSS
VL: QSVLTQPPSVSGAPGQRVTISCTGSSSNIGARYDVHWYQQLPGTAPKLLIYGNSNRPSGVPDRFSGSKSGTSASLAITGLQAEDEADYYCQSYDSSLRGVFGGGTKLTVL
B16: antibody 439 (antibody, V domains shown)
VH: B15 VH with I34M, R100P, S101R, S103G, Y104S, W105Y, G106Y, A107P, I110P, M116L
VL: not shown
B17: antibody 548 (antibody, V domains shown)
VH: B15 VH with I34M, S85N, R98K, P99S, R100G, W105L, G106S
VL: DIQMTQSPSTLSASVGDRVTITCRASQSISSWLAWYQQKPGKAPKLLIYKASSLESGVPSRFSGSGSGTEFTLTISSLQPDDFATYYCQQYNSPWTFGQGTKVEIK
B18: antibody 431 (antibody, V domains shown)
VH: QVQLVESGGGVVQPGRSLRLSCAASGFTFSSYAMHWVRQAPGKGLEWLAVISYDGSNKYYADSVKGRFTISRDNSKNTLYLQMNSLRAEDTAVYYCARSFRGGYYYGMDVWGQGTTVTVSS
VL: DIQLTQSPSFLSASVGDRVTITCRASQGISSYLAWYQQKPGKAPKLLIYAASTLQSGVPSRFSGSGSGTEFTLTISSLQPEDFATYYCQQLNSYPLFTFGPGTKVDIK
B19: antibody 396 (antibody, V domains shown)
VH: QVQLQQWGAGLLKPSETLSLTCAVYGGSFSGYYWSWIRQPPGKGLEWIGEIIHSGSTNYNPSLKSRVTISVDTSKNQFSLKLSSVTAADTAVYYSARRTGLLWFREGSYYFDYWGQGTLVTVSS
VL: DIQMTQSPSSLSASVGDRVTITCRASQGIRNDLGWYQQKPGKAPKRLIYAASSLQSGVPSRFSGSGSGTEFTLTISSLQPEDFATYYCLQHNSYPLTFGGGTKVEIK
B20: antibody 412 (antibody, V domains shown)
VH: QVQLVQSGAEVKKPGASVKVSCKASGYTFTSYGISWVRQAPGQGLEWMGWISAYNGNTNYAQKLQGRVTMTTDTSTSTAYMELRSLRSDDTAVYYCARVTVEAIFGVVILPLKNWFDPWGQGTLVTVSS
VL: QSVLTQPPSVSGAPGQRVTISCTGSSSNIGAGYDVHWYQQLPGTAPKLLIYGNSNRPSGVPDRFSGSKSGTSASLAITGLQAEDEADYYCQSYDSSLTLYVFGTGTKVTVL
B21: antibody 395 (antibody, V domains shown)
VH: QVQLVQSGSELKKPGASVKLSCQASGYTFSNHAMNWVRQAPGQGLEWMGWINTNTGNPTYAQGFTGRFVFSLDTSVGTAYLHISSLKAEDTAFYYCARASARPGVATNLDFWGQGTLVVVSS
VL: DIQMTQSPSSLSASVGDRVTITCRTSQNIDNYLNWYQQKPGKAPNLLIYAASRLHSGVPSRFSGSGSGTDFTLIISSLQPEDLATYYCQQSYSNPLTFGPGTKVDIR
B22: antibody 404 (antibody, V domains shown)
VH: QVQLVESGGGVVQPGRSLRLSCAASGFTFSSYGMHWVRQAPGKGLEWVAVIWYDGSNKYYADSVKGRFTISRDNSKNTLYLQMNSLRAEDTAVYYCARLAVDISFDGSDGMDVWGQGTTVTVSS
VL: SYELTQPPSVSVSPGQTARITCSGDALPKKYAYWYQQKSGQAPVLVIYEDSKRPSGIPERFSGSSSGTMATLTISGAQVEDEADYYCYSTDSSGKGVFGTGTKVTVL
B23: antibody 547 (antibody, V domains shown)
VH: QVHLVESGGGVVQPGRSLRLSCAASGFALSSYAMHWVRQPPGKGLEWVALISYDGSVKKYADSVKGRITVSGDNSRNTLHLQINSLRADDTAVYYCVRGGVSGPNSFDLWGHGTMVTVSS
VL: DVVLTQSPLSLPVTLGQPASISCRSSQSLEYSVGNTYVNWFQQRPGQSPRRLIYKVSNRDSGVPDRFSGSGSGTDFTLQISRVEADDVGIYYCMQGTHWPVTFGQGTKVEIK

Legend:
[1] = target: SARS-CoV spike protein (full length, trimeric) (SARS-CoV, UniProt P59594 14-1190)
[2] = target: SARS-CoV spike protein (full length spike, trimeric, conjugated to beads) (SARS-CoV, UniProt P59594 14-1190)
[3] = target: SARS-CoV-2 full length spike protein (wild-type), conjugated to optically encoded beads (SARS-CoV-2, UniProt P0DTC2 14-1208)

| Binder | median fluorescence fold over isotype control [2] [fold over isotype control] | median fluorescence fold over isotype [3] [fold over isotype] | other results |
| --- | --- | --- | --- |
| B1 | – | – | fold over isotype control (median fluorescence) [1]: 1.36 fold over isotype |
| B2 | 1.03 | – | – |
| B3 | 1.19 | – | – |
| B4 | – | 939 | – |
| B5 | – | 787 | – |
| B6 | 1.08 | – | – |
| B7 | 80.9 | – | – |
| B8 | – | 643 | – |
| B9 | – | 1160 | – |
| B10 | – | 802 | – |
| B11 | 1.23 | – | – |
| B12 | 1.19 | – | – |
| B13 | 1.07 | – | – |
| B14 | – | 23.4 | – |
| B15 | 59.6 | – | – |
| B16 | – | – | fold over isotype control (median fluorescence) [1]: 1.23 fold over isotype |
| B17 | – | 642 | – |
| B18 | 49.9 | – | – |
| B19 | 1.36 | – | – |
| B20 | 1.09 | – | – |
| B21 | 1.16 | – | – |
| B22 | 1.04 | – | – |
| B23 | – | 606 | – |
